# Measured values taken from publication PMC7435236, “Self‐Assembling Glycopeptide Conjugate as a Versatile Platform for Mimicking Complex Polysaccharides” (Advanced Science, 2020).
# System: splenocytes from immunized mice
# Test: IFN‐γ production by splenocytes of immunized mice after in vitro re-stimulation (ELISA)
# Type: in vivo, C57BL/6 mice
# Conditions: spleen cells from vaccinated mice (NPs plus OVA, or OVA only), OVA stimulation 48 h in vitro
# Experimental: To further investigate the activation ability of mannosylated nanoparticles, the spleen cells from mice that vaccinated for 4 weeks with mannosylated NPs plus OVA (group 1) and OVA only (group 4) were stimulated by OVA for 48 h in vitro. The expression levels of IFN‐γ in cell media with or without OVA stimulation was measured by ELISA (Figure 6c).
# After immunization, the spleens of the immunized mice were removed under sterile conditions and suspended in sterile cold PBS. After centrifugation, the cell suspension was diluted to 2 × 10^6 cells mL^−1 in RPMI 1640 supplemented with 10% FBS, 100 µg mL^−1 streptomycin and 100 unit mL^−1 penicillin, and cultured overnight. After removal of the non‐adherent cells, the medium was changed, and the OVA protein in buffer and PBS buffer only were added to different wells, respectively, and cultured for 48 h. The culture media was then collected and diluted for the ELISA tests. Following the instructions of ELISA kit, the samples, anti‐IFN‐γ antibody, and chromogenic substrates were added in order. The corresponding OD450 was measured by Multiskan GO (Thermo Scientific) microplate reader.
molecule,measurement,value
"OVA: Ovalbumin, model antigen for evaluation of vaccine adjuvants (protein, UniProt P01012 2-386, looked up) Ovalbumin: GSIGAASMEFCFDVFKELKVHHANENIFYCPIAIMSALAMVYLGAKDSTRTQINKVVRFDKLPGFGDSIEAQCGTSVNVHSSLRDILNQITKPNDVYSFSLASRLYAEERYPILPEYLQCVKELYRGGLEPINFQTAADQARELINSWVESQTNGIIRNVLQPSSVDSQTAMVLVNAIVFKGLWEKAFKDEDTQAMPFRVTEQESKPVQMMYQIGLFRVASMASEKMKILELPFASGTMSMLVLLPDEVSGLEQLESIINFEKLTEWTSSNVMEERKIKVYLPRMKMEEKYNLTSVLMAMGITDVFSSSANLSGISSAESLKISQAVHAAHAEINEAGREVVGSAEAGVDAASVSEEFRADHPFLFCIKHIATNAVLFFGRCVSP",IFN‐γ expression in cell media,Upregulation of IFN‐γ
